The text below walks through data of patent US20220259268A1 (NATIONAL UNIVERSITY CORPORATION TOKAI NATIONAL HIGHER …, published 2022).

This data set concerns the molecule itself. The data set can be described thus: dynamic light scattering of liposomes carrying Nhead-SNAP on the surface layer.

B1: Nhead-SNAP fusion peptide (AtaA59-325-GCN4pII-SNAP-His) (other)
chain: not shown
notes: also called E. coli recombinant Nhead-SNAP
Regarding B1, the binding result was “no binding”.
